Results reported in patent publication US20230159603A1 (XILIO DEVELOPMENT, published 2023).

B1: rhIL-12RB2-Fc (Fc fusion, human, UniProt Q99665 24-622, looked up, not shown: a dimerising Fc or GST)
chain: KIDACKRGDVTVKPSHVILLGSTVNITCSLKPRQGCFHYSRRNKLILYKFDRRINFHHGHSLNSQVTGLPLGTTLFVCKLACINSDEIQICGAEIFVGVAPEQPQNLSCIQKGEQGTVACTWERGRDTHLYTEYTLQLSGPKNLTWQKQCKDIYCDYLDFGINLTPESPESNFTAKVTAVNSLGSSSSLPSTFTFLDIVRPLPPWDIRIKFQKASVSRCTLYWRDEGLVLLNRLRYRPSNSRLWNMVNVTKAKGRHDLLDLKPFTEYEFQISSKLHLYKGSWSDWSESLRAQTPEEEPTGMLDVWYMKRHIDYSRQQISLFWKNLSVSEARGKILHYQVTLQELTGGKAMTQNITGHTSWTTVIPRTGNWAVAVSAANSKGSSLPTRINIMNLCEAGLLAPRQVSANSEGMDNILVTWQPPRKDPSAVQEYVVEWRELHPGGDTQVPLNWLRSRPYNVSALISENIKSYICYEIRVYALSGDQGGCSSILGNSKHKAPLSGPHINAITEEKGSILISWNSIPVQEQMGCLLHYRIYWKERDSNSQPQLCEIPYRVSQNSHPINSLQPRVTYVLWMTALTAAGESSHGNEREFCLQGKAN
B2: recombinant human IL-12 (rhIL-12) control (ligand)
chain 1: IWELKKDVYVVELDWYPDAPGEMVVLTCDTPEEDGITWTLDQSSEVLGSGKTLTIQVKEFGDAGQYTCHKGGEVLSHSLLLLHKKEDGIWSTDILKDQKEPKNKTFLRCEAKNYSGRFTCWWLTTISTDLTFSVKSSRGSSDPQGVTCGAATLSAERVRGDNKEYEYSVECQEDSACPAAEESLPIEVMVDAVHKLKYENYTSSFFIRDIIKPDPPKNLQLKPLKNSRQVEVSWEYPDTWSTPHSYFSLTFCVQVQGKSKREKKDRVFTDKTSATVICRKNASISVRAQDRYYSSSWSEWASVPCS
chain 2: RNLPVATPDPGMFPCLHHSQNLLRAVSNMLQKARQTLEFYPCTSEEIDHEDITKDKTSTVEACLPLELTKNESCLNSRETSFITNGSCLASRKTSFMMALCLSSIYEDLKMYQVEFKTMNAKLLMDPKRQIFLDQNMLAVIDELMQALNFNSETVPQKSSLEEPDFYKTKIKLCILLHAFRIRAVTIDRVMSYLNAS
notes: also called wild-type rhIL-12

Key:
AK384 = biological target: T1, AK384; assay: SPR, IL-12 receptor immobilised, IL-12 construct flowed, 25 C, FIGS. 35A-35D
T1 construct: Masked IL-12 heterodimer, IL-12Rβ1 (24-237) mask; tested uncleaved
Experimental: (§1) Sensor Chips were coated and immobilized with IL-12 receptors. Dilutions of IL-12 constructs were flowed over the chips with the immobilized IL-12 receptors to determine the on rate at 25 degrees C. At equilibrium (approximately 3-4 minutes), the flow buffer was changed to PBST, to determine the off rates over 6 minutes. Between each run the chip was regenerated. The tables represent the SPR data (FIGS. 34 and 35).

rhIL-12RB2-Fc = biological target: B1; assay: SPR, IL-12 receptor immobilised, IL-12 flowed, 25 C, FIGS. 35A-35D
Experimental: as §1

rhIL-12RB1-Fc = rhIL-12RB1-Fc (human, UniProt P42701 24-545, limits assumed); assay: SPR, IL-12 receptor immobilised, IL-12 flowed, 25 C, FIGS. 34A-34D
Experimental: as §1

Binder	binding result (AK384)	binding result (rhIL-12RB2-Fc)	binding result (rhIL-12RB1-Fc)
B1	binds	–	–
B2	–	binds	binds
